# Reference: paper PMC11485096
# Molecular target: AtoB (Aspergillus ochraceus LZDX-32-15)
# Assay: crystal structure
substance,measurement,value
AtoB (enzyme),stoichiometry N,2
